Experimental data as given in PMC7756681, “Functional Hybrid Molecules for the Visualization of Cancer: PESIN‐Homodimers Combined with Multimodal Molecular Imaging Probes for Positron Emission Tomography and Optical Imaging: Suited for Tracking of GRPR‐Positive Malignant Tissue” (Chemistry (Weinheim an Der Bergstrasse, Germany), 2020).

How the values were obtained:
[1] = LogD determination of 68Ga-labeled MIUs and bioconjugates (water/1-octanol partition, γ-counter); conditions: pH 7.4
Method: Following the synthesis of the MIUs 6 a–13 a and the corresponding bioconjugates 6–13, the radiolabeling efficiency of the compounds with ^68Ga^3+ was investigated. […] In the following, we investigated the lipophilicity of the MIUs [^68Ga]6 a–[^68Ga]13 a and their bioconjugates [^68Ga]6–[^68Ga]13 (Table 1 and Figure 2 C,D).
A solution of the respective multimodal imaging unit (MIU) 6a – 13a (5 nmol) or multimodal imaging agent 6 - 14 (5 nmol) in H2O (Tracepur quality, 1mM) was added to 90 - 120 MBq of [68Ga]GaCl in a solution obtained by fractioned elution of an IGG 68Ge/68Ga generator system […]
with HCl (0.1 M, 1.6 mL) and subsequent titration to pH 3.5 – 4.2 by addition of sodium acetate solution (1.25 M, 50 – 75 µL). All labeling experiments were performed by addition of 2 mg ascorbic acid to suppress radiolysis-induced product fragmentation. In the labeling experiments of the MIUs 6a – 13a, 1 - 4 mg TCEP x HCl were added and the pH was adjusted to 3.5 – 4.2 by addition of sodium acetate solution (1.25 M). After reaction for 10 min at 45°C, the reaction mixtures were analyzed by analytical radio-HPLC.
For 68Ga-6/6a – 68Ga-13/13a, the water/1-octanol partition coefficient (log ) was determined by […]
adding 5 µL of the respectively 68Ga-labeled compound (0.8 – 1.2 MBq) to a mixture of phosphate buffer (0.05 M, pH 7.4, 795 µL) and 1-octanol (800 µL). The mixtures were intensively shaken for 5 minutes on a vibrating plate. After subsequent centrifugation at 13 000 rpm for 5 min, 125 µL were taken from each phase and measured in a γ-counter. The logD values were calculated from three or four independent experiments, each performed in triplicate.
For 14, the water/1-octanol partition coefficient (logD) was determined by semipreparative HPLC.
For this purpose, 10 µL solution (c = 5 x 10-4 mol/L) of the substance were added to a mixture of 1 mL 1-octanol and 990 µL phosphate buffered solution (0.05 M, pH 7.4) and the mixture was vigorously shaken for 5 minutes. After centrifugation, the phases were separated and both phases were analyzed by semipreparative HPLC. The logD was determined by three separate measurements, each experiment performed in triplicate.
(§1) Competitive receptor binding assay
(§2) Stably GRPR-transfected Human Embryonic Kidney 293 cells (HEK-GRPR) were cultured at 37°C in Dulbecco’s Modified Eagle’s Medium (DMEM, high glucose, GlutaMax-I, 500 mL) […]
(§3) a humidified atmosphere containing 5 % CO2. The medium was exchanged every two or three days and cells were split at >75 % confluence. In vitro binding affinities were determined via competitive displacement experiments which were performed at least trice, each experiment performed in triplicate. A Millipore Multiscreen punch kit and Millipore 96 well filter plates (pore size 1.2 µm) were used. The plates were incubated with PBS/BSA (1%) solution (each well 200 µL) for one hour before use. HEK-GRPR cells were harvested and suspended carefully in Opti- […]

[2] = molecular target: T1, gastrin-releasing peptide receptor (GRPR) (Homo sapiens, UniProt P30550); experiment: Competitive displacement assay on stably GRPR-transfected HEK cells using [125I]-Tyr4-bombesin; format: binding; conditions: [125I]-Tyr4-bombesin as competitor, 1 h, ambient temperature, read-out: IC50 (GRPR affinity)
T1 construct: host or cells: Human Embryonic Kidney 293 cells (HEK-GRPR)
Method: as §1, §2
as §3, with “Opti-MEM I (GlutaMAX I) medium. 50 µL of a cell suspension containing […] were seeded in each well. To this, a total volume of 50 µL was added to each well, containing 25 µL (0.012” for “Opti-”
The competitor was added in 11 increasing concentrations ranging from 0.25 – 500 nM for 6 – […]
binding of the radioligand. After one hour of incubation at ambient temperature, the solution was filtrated and the filters were washed with cold PBS (3 times). The filters were collected and […]

[3] = Photophysical properties (absorption and emission spectra in PBS); format: physicochemical; conditions: for Log ϵ / Stokes shift / λ max: 1×10^−5 mol L^−1
Excerpt: After studying the chemical and biological properties of the MIUs and their corresponding multimodal imaging agents, the photophysical properties of the substances were finally under investigation. Here, we found no significant decrease or shift of the optical and fluorescent characteristics of the bioconjugates compared to the MIUs (Table 2).
Fig. S27 Normalized absorption and emission spectra of 7 (left) and 7a (right), recorded in PBS
at a concentration of c = 1.0 x 10-5 mol/L, emission wavelength stated in the graph (bottom, left
Fig. S28 Normalized absorption and emission spectra of 8 (left) and 8a (right), recorded in PBS
Fig. S29 Normalized absorption and emission spectra of 9 (left) and 9a (right), recorded in PBS […]
Fig. S30 Normalized absorption and emission spectra of 10 (left) and 10a (right), recorded in
PBS at a concentration of c = 1.0 x 10-5 mol/L, emission wavelength stated in the graph (bottom,
Fig. S31 Normalized absorption and emission spectra of 11 (left) and 11a (right), recorded in
Fig. S32 Normalized absorption and emission spectra of 12 (left) and 12a (right), recorded in […]

[4] = 1×10^−5 mol L^−1, excitation wavelength λex=400 nm

T1 sequence (P30550 whole entry, species assumed): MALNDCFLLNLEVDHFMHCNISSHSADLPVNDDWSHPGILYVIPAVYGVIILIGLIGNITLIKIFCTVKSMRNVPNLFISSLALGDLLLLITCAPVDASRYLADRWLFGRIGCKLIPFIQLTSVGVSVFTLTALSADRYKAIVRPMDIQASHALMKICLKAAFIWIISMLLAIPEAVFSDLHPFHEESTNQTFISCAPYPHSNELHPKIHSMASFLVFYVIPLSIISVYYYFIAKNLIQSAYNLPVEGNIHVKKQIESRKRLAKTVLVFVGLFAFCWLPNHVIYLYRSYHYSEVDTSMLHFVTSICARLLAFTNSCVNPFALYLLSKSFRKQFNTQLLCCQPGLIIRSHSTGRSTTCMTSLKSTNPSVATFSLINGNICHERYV

SMILES | logD [1] | IC50 [2] | Log ϵ [3] | Stokes shift [3] | λ max [3] | λem [3, 4] | λem ([3]; 1×10^−5 mol L^−1, excitation wavelength λex=500 nm)
CSCC[C@H](NC(=O)[C@H](CC(C)C)NC(=O)[C@H](Cc1c[nH]cn1)NC(=O)CNC(=O)[C@@H](NC(=O)[C@H](C)NC(=O)[C@H](Cc1c[nH]c2ccccc12)NC(=O)[C@H](CCC(N)=O)NC(=O)CCOCCOCCOCCOCCNC(=O)CON=Cc1ccc(C(=O)NCCCN(CCCNC(=O)c2ccc(C=NOCC(=O)NCCOCCOCCOCCOCCC(=O)N[C@@H](CCC(N)=O)C(=O)N[C@@H](Cc3c[nH]c4ccccc34)C(=O)N[C@@H](C)C(=O)N[C@H](C(=O)NCC(=O)N[C@@H](Cc3c[nH]cn3)C(=O)N[C@@H](CC(C)C)C(=O)N[C@@H](CCSC)C(N)=O)C(C)C)cc2)CC(=O)N[C@H](CSC2CC(=O)N(CCN3C(=O)CC(SC[C@H](NC(=O)[C@H](CCCCNC(=O)c4cc5cc6c7c(c5oc4=O)CCCN7CCC6)NC(=O)CC[C@H](C(=O)O)N4CCN(CC(=O)O)CCN(CC(=O)O)CC4)C(N)=O)C3=O)C2=O)C(=O)NCCOCCOCC(N)=O)cc1)C(C)C)C(N)=O (stereo partly shown) [Compound 12] | -1.72 ± 0.13 | 20.9 ± 1.67 nM | 4.30 M ^−1 cm^−1 | 40 nm | 455 nm | 495 nm | –
CSCC[C@H](NC(=O)[C@H](CC(C)C)NC(=O)[C@H](Cc1c[nH]cn1)NC(=O)CNC(=O)[C@@H](NC(=O)[C@H](C)NC(=O)[C@H](Cc1c[nH]c2ccccc12)NC(=O)[C@H](CCC(N)=O)NC(=O)CCOCCOCCOCCOCCNC(=O)CON=Cc1ccc(C(=O)NCCCN(CCCNC(=O)c2ccc(C=NOCC(=O)NCCOCCOCCOCCOCCC(=O)N[C@@H](CCC(N)=O)C(=O)N[C@@H](Cc3c[nH]c4ccccc34)C(=O)N[C@@H](C)C(=O)N[C@H](C(=O)NCC(=O)N[C@@H](Cc3c[nH]cn3)C(=O)N[C@@H](CC(C)C)C(=O)N[C@@H](CCSC)C(N)=O)C(C)C)cc2)CC(=O)N[C@H](CSC2CC(=O)N(CCN3C(=O)CC(SC[C@H](NC(=O)[C@H](CCCCNS(=O)(=O)c4cccc5c(N(C)C)cccc45)NC(=O)CC[C@H](C(=O)O)N4CCN(CC(=O)O)CCN(CC(=O)O)CC4)C(N)=O)C3=O)C2=O)C(=O)NCCOCCOCC(N)=O)cc1)C(C)C)C(N)=O (stereo partly shown) [Compound 9] | -1.59 ± 0.06 | 26.2 ± 0.89 nM | – | – | – | 540 nm | –
CSCC[C@H](NC(=O)[C@H](CC(C)C)NC(=O)[C@H](Cc1c[nH]cn1)NC(=O)CNC(=O)[C@@H](NC(=O)[C@H](C)NC(=O)[C@H](Cc1c[nH]c2ccccc12)NC(=O)[C@H](CCC(N)=O)NC(=O)CCOCCOCCOCCOCCNC(=O)CON=Cc1ccc(C(=O)NCCCN(CCCNC(=O)c2ccc(C=NOCC(=O)NCCOCCOCCOCCOCCC(=O)N[C@@H](CCC(N)=O)C(=O)N[C@@H](Cc3c[nH]c4ccccc34)C(=O)N[C@@H](C)C(=O)N[C@H](C(=O)NCC(=O)N[C@@H](Cc3c[nH]cn3)C(=O)N[C@@H](CC(C)C)C(=O)N[C@@H](CCSC)C(N)=O)C(C)C)cc2)CC(=O)N[C@H](CSC2CC(=O)N(CCN3C(=O)CC(SC[C@H](NC(=O)[C@H](CCCC[n+]4c(C)cc(/C=C/C=C/c5ccc(N(C)C)cc5)cc4C)NC(=O)CC[C@H](C(=O)O)N4CCN(CC(=O)O)CCN(CC(=O)O)CC4)C(N)=O)C3=O)C2=O)C(=O)NCCOCCOCC(N)=O)cc1)C(C)C)C(N)=O (stereo partly shown) [Compound 8] | -1.73 ± 0.2 | 15.5 ± 0.76 nM | 4.16 M ^−1 cm^−1 | 230 nm | 470 nm | 700 nm | –
CSCC[C@H](NC(=O)[C@H](CC(C)C)NC(=O)[C@H](Cc1c[nH]cn1)NC(=O)CNC(=O)[C@@H](NC(=O)[C@H](C)NC(=O)[C@H](Cc1c[nH]c2ccccc12)NC(=O)[C@H](CCC(N)=O)NC(=O)CCOCCOCCOCCOCCNC(=O)CON=Cc1ccc(C(=O)NCCCN(CCCNC(=O)c2ccc(C=NOCC(=O)NCCOCCOCCOCCOCCC(=O)N[C@@H](CCC(N)=O)C(=O)N[C@@H](Cc3c[nH]c4ccccc34)C(=O)N[C@@H](C)C(=O)N[C@H](C(=O)NCC(=O)N[C@@H](Cc3c[nH]cn3)C(=O)N[C@@H](CC(C)C)C(=O)N[C@@H](CCSC)C(N)=O)C(C)C)cc2)CC(=O)N[C@H](CSC2CC(=O)N(CCN3C(=O)CC(SC[C@H](NC(=O)[C@H](CCCCNC(=O)c4ccccc4C4=c5cc6c7c(c5Oc5c4cc4c8c5CCCN8CCC4)CCC[N+]=7CCC6)NC(=O)CC[C@H](C(=O)O)N4CCN(CC(=O)O)CCN(CC(=O)O)CC4)C(N)=O)C3=O)C2=O)C(=O)NCCOCCOCC(N)=O)cc1)C(C)C)C(N)=O (stereo partly shown) [Compound 13] | -0.81 ± 0.05 | 18 ± 0.86 nM | 4.57 M ^−1 cm^−1 | 20 nm | 590 nm | – | 610 nm
CSCC[C@H](NC(=O)[C@H](CC(C)C)NC(=O)[C@H](Cc1c[nH]cn1)NC(=O)CNC(=O)[C@@H](NC(=O)[C@H](C)NC(=O)[C@H](Cc1c[nH]c2ccccc12)NC(=O)[C@H](CCC(N)=O)NC(=O)CCOCCOCCOCCOCCNC(=O)CON=Cc1ccc(C(=O)NCCCN(CCCNC(=O)c2ccc(C=NOCC(=O)NCCOCCOCCOCCOCCC(=O)N[C@@H](CCC(N)=O)C(=O)N[C@@H](Cc3c[nH]c4ccccc34)C(=O)N[C@@H](C)C(=O)N[C@H](C(=O)NCC(=O)N[C@@H](Cc3c[nH]cn3)C(=O)N[C@@H](CC(C)C)C(=O)N[C@@H](CCSC)C(N)=O)C(C)C)cc2)CC(=O)N[C@H](CSC2CC(=O)N(CCN3C(=O)CC(SC[C@H](NC(=O)[C@H](CCCCNc4ccc([N+](=O)[O-])c5nonc45)NC(=O)CC[C@H](C(=O)O)N4CCN(CC(=O)O)CCN(CC(=O)O)CC4)C(N)=O)C3=O)C2=O)C(=O)NCCOCCOCC(N)=O)cc1)C(C)C)C(N)=O (stereo partly shown) [Compound 10] | -1.42 ± 0.24 | – | 4.10 M ^−1 cm^−1 | – | 490 nm | 545 nm | –
CSCC[C@H](NC(=O)[C@H](CC(C)C)NC(=O)[C@H](Cc1c[nH]cn1)NC(=O)CNC(=O)[C@@H](NC(=O)[C@H](C)NC(=O)[C@H](Cc1c[nH]c2ccccc12)NC(=O)[C@H](CCC(N)=O)NC(=O)CCOCCOCCOCCOCCNC(=O)CON=Cc1ccc(C(=O)NCCCN(CCCNC(=O)c2ccc(C=NOCC(=O)NCCOCCOCCOCCOCCC(=O)N[C@@H](CCC(N)=O)C(=O)N[C@@H](Cc3c[nH]c4ccccc34)C(=O)N[C@@H](C)C(=O)N[C@H](C(=O)NCC(=O)N[C@@H](Cc3c[nH]cn3)C(=O)N[C@@H](CC(C)C)C(=O)N[C@@H](CCSC)C(N)=O)C(C)C)cc2)CC(=O)N[C@H](CSC2CC(=O)N(CCN3C(=O)CC(SC[C@H](NC(=O)[C@H](CCCC[n+]4c(C)cc(/C=C/c5ccc(N(C)C)cc5)cc4C)NC(=O)CC[C@H](C(=O)O)N4CCN(CC(=O)O)CCN(CC(=O)O)CC4)C(N)=O)C3=O)C2=O)C(=O)NCCOCCOCC(N)=O)cc1)C(C)C)C(N)=O (stereo partly shown) [Compound 7] | -2 ± 0.01 | 16.5 ± 0.25 nM | 4.23 M ^−1 cm^−1 | 140 nm | 460 nm | 600 nm | –
